In PMC12521702, “Development of a trispecific fusion protein based on angiotensin-converting enzyme 2, glycoprotein 130, and tumor necrosis factor receptor 2 as a promising therapeutic for COVID-19” (Molecular Biomedicine, 2025):

Columns and labels:
human Hyper-IL-6 = human Hyper-IL-6 (human, UniProt P08887 20-355); assay: ELISA; plates coated with 2 μg/mL Hyper-IL-6-His in carbonate-bicarbonate buffer pH 9.6; serial dilutions of fusion proteins from 50 nM, 1 h at 37 °C; HRP anti-human IgG; conditions: both partners purified
mouse Hyper-IL-6 = target: T1, mouse Hyper-IL-6 (mouse, UniProt P22272;P08505); assay: as above; conditions: both partners purified
T1 construct: also called murine Hyper-IL-6; Hyper-IL-6-His; not shown: His tag, C-terminal, kept
T1 chain: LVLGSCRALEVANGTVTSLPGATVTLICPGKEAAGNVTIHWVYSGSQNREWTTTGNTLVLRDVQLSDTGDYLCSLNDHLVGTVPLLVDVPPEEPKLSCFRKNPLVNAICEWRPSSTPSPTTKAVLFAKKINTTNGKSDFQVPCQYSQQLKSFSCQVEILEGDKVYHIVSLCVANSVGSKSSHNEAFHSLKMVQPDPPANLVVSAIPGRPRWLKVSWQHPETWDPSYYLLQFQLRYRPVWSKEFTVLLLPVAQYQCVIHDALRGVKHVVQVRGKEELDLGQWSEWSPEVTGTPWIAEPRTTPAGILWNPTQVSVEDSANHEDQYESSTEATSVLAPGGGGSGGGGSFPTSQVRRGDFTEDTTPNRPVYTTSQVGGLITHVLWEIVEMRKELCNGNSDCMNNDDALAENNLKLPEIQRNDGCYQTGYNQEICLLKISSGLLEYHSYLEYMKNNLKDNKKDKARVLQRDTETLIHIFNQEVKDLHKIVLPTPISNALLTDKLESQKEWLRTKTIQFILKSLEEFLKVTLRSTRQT

B1: ACE2 (M)-Fc-hGP130 (Fc fusion)
chain: QSTIEEQAKFFLDYFNHEAEDLFYQSSLASWNYNTNITEENVQNMNNAGDKWSAFLKEQSTWAQMYPLQEIQNLTVKLQLQALQQNGSSVLSEDKSKRLNTILNTMSTIYSTGKVCNPDNPQECLLLEPGLNEIMANSLDYNERLWAWESWRSEVGKQLRPLYEEYVVLKNEMARANHYEDYGDYWRGDYEVNGVDGYDYSRGQLIEDVEHTFEEIKPLYEHLHAYVRAKLMNAYPSYISPIGCLPAHLLGDMWGQFWTNLYSLTVPFGQKPNIDVTDAMVDQAWDAQRIFKEAEKFFVSVGLPNMTQGFWEYSMLTDPGNVQKAVCHPTAWDLGKGDFRILMCTKVTMDDFLTAHHEMGHIQYDMAYAAQPFLLRNGANEGFHEAVGEIMSLSAATPKHLKSIGLLSPDFQEDNETEINFLLKQALTIVGTLPFTYMLEKWRWMVFKGEIPKDQWMKKWWEMKREIVGVVEPVPHDETYCDPASLFHVSNDYSFIRYYTRTLYQFQFQEALCQAAKHEGPLHKCDISNSTEAGQKLFNMLRLGKSEPWTLALENVVGAKNMNVRPLLNYFEPLFTWLKDQNKNSFVGWSTDWSPYADQSIKVRISLKSALGDKAYEWNDNEMYLFRSSVAYAMRQYFLKVKNQMILFGEEDVRVANLKPRISFNFFVTAPKNVSDIIPRTEVEKAIRMSRSRINDAFRLNDNSLEFLGIQPTLGPPNQPPVSGGGGSGGGGSGGGGSELLDPCGYISPESPVVQLHSNFTAVCVLKEKCMDYFHVNANYIVWKTNHFTIPKEQYTIINRTASSVTFTDIASLNIQLTCNILTFGQLEQNVYGITIISGLPPEKPKNLSCIVNEGKKMRCEWDGGRETHLETNFTLKSEWATHKFADCKAKRDTPTSCTVDYSTVYFVNIEVWVEAENALGKVTSDHINFDPVYKVKPNPPHNLSVINSEELSSILKLTWTNPSIKSVIILKYNIQYRTKDASTWSQIPPEDTASTRSSFTVQDLKPFTEYVFRIRCMKEDGKGYWSDWSEEASGITYEDRPSKAPSFWYKIDPSHTQGYRTVQLVWKTLPPFEANGKILDYEVTLTRWKSHLQNYTVNATKLTVNLTNDRYLATLTVRNLVGKSDAAVLTIPACDFQATHPVMDLKAFPKDNMLWVEWTTPRESVKKYILEWCVLSDKAPCITDWQQEDGTVHRTYLRGNLAESKCYLITVTPVYADGPGSPESIKAYLKQAPPSKGPTVRTKKVGKNEAVLEWDQLPVDVQNGFIRNYTIFYRTIIGNETAVNVDSSHTEYTLSSLTSDTLYMVRMAAYTDEGGKDGPEFTFTTPKFAQGEIE
Work on B1 yielded an EC50 (human Hyper-IL-6) of 1.55 nM.

B2: ACE2 (M)-Fc-mGP130 (Fc fusion)
chain: QSTIEEQAKFFLDYFNHEAEDLFYQSSLASWNYNTNITEENVQNMNNAGDKWSAFLKEQSTWAQMYPLQEIQNLTVKLQLQALQQNGSSVLSEDKSKRLNTILNTMSTIYSTGKVCNPDNPQECLLLEPGLNEIMANSLDYNERLWAWESWRSEVGKQLRPLYEEYVVLKNEMARANHYEDYGDYWRGDYEVNGVDGYDYSRGQLIEDVEHTFEEIKPLYEHLHAYVRAKLMNAYPSYISPIGCLPAHLLGDMWGQFWTNLYSLTVPFGQKPNIDVTDAMVDQAWDAQRIFKEAEKFFVSVGLPNMTQGFWEYSMLTDPGNVQKAVCHPTAWDLGKGDFRILMCTKVTMDDFLTAHHEMGHIQYDMAYAAQPFLLRNGANEGFHEAVGEIMSLSAATPKHLKSIGLLSPDFQEDNETEINFLLKQALTIVGTLPFTYMLEKWRWMVFKGEIPKDQWMKKWWEMKREIVGVVEPVPHDETYCDPASLFHVSNDYSFIRYYTRTLYQFQFQEALCQAAKHEGPLHKCDISNSTEAGQKLFNMLRLGKSEPWTLALENVVGAKNMNVRPLLNYFEPLFTWLKDQNKNSFVGWSTDWSPYADQSIKVRISLKSALGDKAYEWNDNEMYLFRSSVAYAMRQYFLKVKNQMILFGEEDVRVANLKPRISFNFFVTAPKNVSDIIPRTEVEKAIRMSRSRINDAFRLNDNSLEFLGIQPTLGPPNQPPVSGGGGSGGGGSGGGGSQLLEPCGYIYPEFPVVQRGSNFTAICVLKEACLQHYYVNASYIVWKTNHAAVPREQVTVINRTTSSVTFTDVVLPSVQLTCNILSFGQIEQNVYGVTMLSGFPPDKPTNLTCIVNEGKNMLCQWDPGRETYLETNYTLKSEWATEKFPDCQSKHGTSCMVSYMPTYYVNIEVWVEAENALGKVSSESINFDPVDKVKPTPPYNLSVTNSEELSSILKLSWVSSGLGGLLDLKSDIQYRTKDASTWIQVPLEDTMSPRTSFTVQDLKPFTEYVFRIRSIKDSGKGYWSDWSEEASGTTYEDRPSRPPSFWYKTNPSHGQEYRSVRLIWKALPLSEANGKILDYEVILTQSKSVSQTYTVTGTELTVNLTNDRYVASLAARNKVGKSAAAVLTIPSPHVTAAYSVVNLKAFPKDNLLWVEWTPPPKPVSKYILEWCVLSENAPCVEDWQQEDATVNRTHLRGRLLESKCYQITVTPVFATGPGGSESLKAYLKQAAPARGPTVRTKKVGKNEAVLAWDQIPVDDQNGFIRNYSISYRTSVGKEMVVHVDSSHTEYTLSSLSSDTLYMVRMAAYTDEGGKDGPEFTFTTPKFAQGEIE
For B2, the EC50 (mouse Hyper-IL-6) was 1.83 nM.
